According to patent US7173005 (dated 2007):
Values belong to the binder of their own block, whether it stands above or below them.

Key:
[1] = molecular target: T1, human IGF-1 receptor (IGF-1R) (human, UniProt P08069); experiment: competition, AlphaScreen vs b-hIGF-1
[2] = molecular target: human insulin receptor (HIR) (human, UniProt P06213); experiment: competition
[3] = molecular target: T1, human IGF-1 receptor (IGF-1R); experiment: competition, TR-FRET vs b-20E2
[4] = molecular target: T1, human IGF-1 receptor (IGF-1R); experiment: competition, TR-FRET vs b-20E2; remark: listed apart in the source
[5] = molecular target: T1, human IGF-1 receptor (IGF-1R); experiment: competition
[6] = molecular target: T1, human IGF-1 receptor (IGF-1R); experiment: competition, TRF vs b-rhIGF-1

IC50 [1]: 190 nM
B1: S327 / RP6KK (peptide)
chain: TFYSCLASLLTGTPQPNRGPWERCRKK

Kd [2]: 9300 nM
B2: S122 (peptide)
chain: HPTSKEIYAKLLK

Kd [2]: 2000 nM
B3: S120 (peptide)
chain: HDPFYSMMKSLLK

IC50 [3]: 104 nM | IC50 [4]: 100 nM
B4: 20E2 (D118) (peptide)
chain: DYKDFYDAIDQLVRGSARAGGTRD

Ki [5]: 1450 nM | IC50 [4]: 178 nM | IC50 [6]: 1450 nM
B5: S326 / G33 (peptide)
chain: GIISQSCPESFYDWFAGQVSDPWWCW

IC50 [1]: 9 nM
B6: RP33-IGF (peptide)
chain: SFYSCLESLVNGPAEKSRGQWDGCRKK

Kd [2]: 2900 nM
B7: S171 (peptide)
chain: CGFHENFYDWFVRQVSKK

Kd [2]: 2000 nM
B8: S242 (peptide)
chain: ANFYDWFVAELG

Ki [5]: 36 nM | IC50 [6]: 35.7 nM
B9: D815-6aa-RP9 (peptide)
chain: WLDQERAWLWCEISGRGCLSGGSGGSGSLDESFYDWFERQLGKK

IC50 [3]: 11300 nM
B10: S263 / D8B12 (peptide)
chain: WLEQERAWIWCEIQGSGCRA

Kd [2]: 5000 nM
B11: S246 (peptide)
chain 1: ACAWPTYWNCGGGGX
chain 2: FHENFYDWFVRQVSKKX
modifications: listing feature

Kd [2]: 1600 nM
B12: S255 (peptide)
chain 1: SDGFYNAIELLSGGGX
chain 2: SDGFYNAIELLSGGGX
modifications: listing feature

IC50 [3]: 31000 nM
B13: A6 (peptide)
chain: SAKNFYDWFVKK

IC50 [3]: 0.88 nM | IC50 [4]: 10 nM
B14: C1 (D112) (peptide)
chain: CWARPCGDAANFYDWFVQQAS

IC50 [4]: 961 nM
B15: RP16 (peptide)
chain: VMDARDDPFYHKLSELVT

IC50 [3]: 460 nM
B16: H2C (D117) (peptide)
chain: FHENFYDWFVQRVSKK

IC50 [4]: 8100 nM
B17: RP4 (peptide)
chain: PPWGARFYDAIEQLVFDNL

Ki [5]: 624 nM | IC50 [6]: 624 nM
B18: D815-6aa-G33 (protein)
chain: WLDQERAWLWCEISGRGCLSGGSGGSGIISQSCPESFYDWFAGQVSDPWWCW

Kd [2]: 2400 nM
B19: S118 (peptide)
chain: SDGFYNAIELLS

IC50 [4]: 706 nM
B20: RP15 (peptide)
chain: SQAGSAFYAWFDQVLRTV

Ki [5]: 3 nM | IC50 [6]: 3.22 nM
B21: D815-12aa-RP9 (peptide)
chain: WLDQERAWLWCEISGRGCLSGGSGGSGGSGGSGSLDESFYDWFERQLGKK

IC50 [1]: 1600 nM
B22: RP54 (peptide)
chain: EGSSINLLARAQIVELALEMGVQEE

Ki [5]: 417 nM | IC50 [3]: 39.3 nM | IC50 [4]: 33 nM | IC50 [6]: 417 nM
B23: S386 / RP9 without terminal lysines (peptide)
chain: GSLDESFYDWFERQLG

IC50 [3]: 6290 nM
B24: S173 (peptide)
chain: LDALDRLMRYFEERPSL

Kd [2]: 3800 nM
B25: S168 (peptide)
chain: AAAAFYDWFAAAAAKK

Kd [2]: 2.4 nM
B26: S456 (peptide)
chain 1: XGSLDESFYDWFERQLGKK
chain 2: XKEWLDQEWAWVQCEVYGRGCPSEE
modifications: not fully specified; listing feature

Ki [5]: 4080 nM | IC50 [6]: 4080 nM
B27: rD815 (peptide)
chain: WLDQERAWLWCEISGRGCLS
